We go through 51 molecules from US20090311283A1.

The target in assay [1] is HLA-A*0301 (human). In words: competitive inhibition of 125I-labelled probe peptide binding to purified HLA, gel filtration. To be noted: scale: ratio.
The target of assay [2] is HLA-A*0201 (human). Nature of the assay: competition with 125I-labelled probe peptide for purified HLA, gel filtration. In general terms: In gel filtration, larger molecules generally elute earlier.
In assay [3] the target is HLA-A*0201 (Human).
Assay [4] addresses HLA-A*0201 (human).
For assay [5], the target named is HLA-A*3101 (human). Nature of the assay: competition with 125I probe peptide on purified HLA-A*3101; relative to standard peptide 941.12. The conditions noted are these: remark: other sources report otherwise.
Assay [6] concerns the target HLA-A*0301 (human). In words: competition with 125I probe peptide on purified HLA-A*0301; relative to standard peptide 941.12. The conditions noted are these: remark: other sources report otherwise.
Another assay has as its target HLA-A*6801 (human). In words: competition with 125I probe peptide on purified HLA-A*6801; relative to standard peptide 941.12. The conditions noted are these: remark: other sources report otherwise.
Assay [7] deals with HLA-A*0301 (human). In words: competition with 125I-labelled probe peptide for purified HLA, gel filtration.
Assay [8] has as its target HLA-A*3101 (human). Nature of the assay: competition with 125I-labelled probe peptide for purified HLA-A*3101, gel filtration; ratio to standard peptide 941.12.
[9] abbreviates: remark: other sources report otherwise.

Where two headings read alike, the source gives them in different places.

As to YSLNFMGY (modifications not checked) [HBV POL 580 peptide YSLNFMGY], in the assay with HLA-A*0301 (human) [1], the binding affinity ratio (relative binding to standard peptide) was -0.0002. Regarding PILSTLPET (modifications not checked), in the assay with HLA-A*0201 (human) [2], the binding affinity ratio (IC50 of standard peptide / IC50 of test peptide) was found to be 0.0001. As to STLPETTVV (modifications not checked) [HBV NUC 141 peptide …], the binding affinity ratio (IC50 of standard peptide / IC50 of test peptide) with HLA-A*0201 (Human) [3] came to 0.0019. As for WLLGCAANWI (modifications not checked) [HBV POL 751 10-mer peptide …], the binding affinity ratio (IC50 of standard peptide / IC50 of test peptide) with HLA-A*0201 (human) [4] was found to be 0.0053. Regarding NLGNLNVSI (modifications not checked) [HBV POL 42 peptide …], the binding affinity ratio (IC50 of standard peptide / IC50 of test peptide) (ratio to standard peptide) in the assay with HLA-A*0201 (Human) [3] is 0.0047. For the molecule TSAICSVVR (modifications not checked) [HBV POL 519 peptide …], the binding affinity ratio (IC50 standard peptide / IC50 test peptide) stood at 0.06 with HLA-A*3101 (human) [5], 0.02 with HLA-A*3301 (human) (setting [9]), 0.0005 with HLA-A*0301 (human) [6] and 0.082 with HLA-A*6801 (human). As for PIILGFRKI (modifications not checked) [HBV POL 496 peptide …], in the assay with HLA-A*0201 (human) [2], the binding affinity ratio (IC50 of standard peptide / IC50 of test peptide) amounted to 0.0001. As for GLLGFAAPFT (modifications not checked) [HBV POL 627 peptide …], in the assay with HLA-A*0201 (Human) [3], the binding affinity ratio (IC50 of standard peptide / IC50 of test peptide) was 0.0049. In the case of VVRRRGRSPR (modifications not checked) [HBV NUC 177 peptide …], the binding affinity ratio (IC50 of standard peptide / IC50 of test peptide) (ratio to standard peptide) with HLA-A*0301 (human) [7] turned out to be 0.0027.

With NLLSSNLSWL (modifications not checked) [HBV POL 406 peptide …], the binding affinity ratio (IC50 of standard peptide / IC50 of test peptide) (ratio to standard peptide) with HLA-A*0201 (Human) [3] was determined as 0.0016. Consider FTGLYSSTV (modifications not checked) [HBV POL 59 …], for which the binding affinity ratio (IC50 of standard peptide / IC50 of test peptide) with HLA-A*0201 (Human) [3] was found to be 0.0005. As for PLGFFPDHQL (modifications not checked) [HBV ENV 10 peptide …], the binding affinity ratio (IC50 of standard peptide / IC50 of test peptide) with HLA-A*0201 (human) [2] amounted to 0.0002. On to VVRRRGRSPR (modifications not checked) [… (HBV NUC 177)], for which the binding affinity ratio (IC50 of standard peptide / IC50 of test peptide) in the assay with HLA-A*0301 (human) [7] amounted to 0.0027. Turning to GLSPTVWLSVI (modifications not checked) [HBV ENV 348 peptide …], the binding affinity ratio (IC50 of standard peptide / IC50 of test peptide) with HLA-A*0201 (Human) [3] turned out to be 0.0036.

For LIFLLVLL (modifications not checked) [HBV ENV 254 peptide LIFLLVLL], the binding affinity ratio (IC50 of standard peptide / IC50 of test peptide) with HLA-A*0201 (human) [4] turned out to be 0.0025.

As to LLGCAANWI (modifications not checked) [HBV POL 752 peptide …], the binding affinity ratio (IC50 of standard peptide / IC50 of test peptide) with HLA-A*0201 (human) [4] worked out at 0.0011. As for IVGLLGFAA (modifications not checked) [HBV POL 625 peptide …], the binding affinity ratio (IC50 of standard peptide / IC50 of test peptide) with HLA-A*0201 (Human) [3] came out at 0.0009. As to VLGGCRHKL (modifications not checked) [HBV X 133 peptide …], in the assay with HLA-A*0201 (Human) [3], the binding affinity ratio (IC50 of standard peptide / IC50 of test peptide) was found to be 0.0009. As for PALMPLYACI (modifications not checked) [HBV POL 641 peptide …], in the assay with HLA-A*0201 (human) [2], the binding affinity ratio (IC50 of standard peptide / IC50 of test peptide) came out at 0.0001. In the case of PARDVLCLR (modifications not checked) [HBV X 11 peptide …], the binding affinity ratio (IC50 of standard peptide / IC50 of test peptide) in the assay with HLA-A*3301 (human) came to 0.018; in the assay with HLA-A*3101 (human) [8] it was 0.01. On to FIIFLFIL (modifications not checked) [HBV ENV 243 FIIFLFIL], for which, in the assay with HLA-A*0201 (Human) [3], the binding affinity ratio (IC50 of standard peptide / IC50 of test peptide) is 0.0006.

With YVPSALNPA (modifications not checked) [HBV POL 768 peptide …], in the assay with HLA-A*0201 (human) [4], the binding affinity ratio (IC50 of standard peptide / IC50 of test peptide) is 0.0039. Turning to GVWIRTPPA (modifications not checked) [HBV NUC 123 peptide …], the binding affinity ratio (IC50 of standard peptide / IC50 of test peptide) in the assay with HLA-A*0201 (Human) [3] is 0.003.

As to PILSTLPETT (modifications not checked), in the assay with HLA-A*0201 (human) [2], the binding affinity ratio (IC50 of standard peptide / IC50 of test peptide) turned out to be 0.0001. VLCLRPVGA (modifications not checked) [HBV X 15 peptide …]: the binding affinity ratio (IC50 of standard peptide / IC50 of test peptide) with HLA-A*0201 (Human) [3] (setting [9]) is 0.0014. As for LLTRILTI (modifications not checked) [HBV ENV 184 peptide LLTRILTI], the binding affinity ratio (IC50 of standard peptide / IC50 of test peptide) in the assay with HLA-A*0201 (human) [4] is 0.0026. As to WLSLDVSAA (modifications not checked) [HBV POL 414 9-mer peptide …], the binding affinity ratio (IC50 of standard peptide / IC50 of test peptide) in the assay with HLA-A*0201 (human) [4] was 0.0059. In the case of YLPLDKGIK (modifications not checked), the binding affinity ratio (relative binding to standard peptide) with HLA-A*0301 (human) [1] amounted to 0.0001.

Regarding LVSFGVWI (modifications not checked) [HBV NUC 119 peptide LVSFGVWI], the binding affinity ratio (IC50 of standard peptide / IC50 of test peptide) (ratio to standard peptide) with HLA-A*0201 (Human) [3] worked out at 0.0004. In the case of PLEEELPRLA (modifications not checked), in the assay with HLA-A*0201 (human) [2], the binding affinity ratio (IC50 of standard peptide / IC50 of test peptide) turned out to be 0.0001. Turning to YLPLDKGIKPY (modifications not checked), the binding affinity ratio (relative binding to standard peptide) with HLA-A*0301 (human) [1] is -0.0004.

Regarding FLFILLLCL (modifications not checked) [HBV ENV 246 …], the binding affinity ratio (IC50 of standard peptide / IC50 of test peptide) with HLA-A*0201 (Human) [3] worked out at 0.0002. For the molecule WLQFRNSK (modifications not checked) [HBV POL 314 peptide WLQFRNSK], the binding affinity ratio (relative binding to standard peptide) with HLA-A*0301 (human) [1] was -0.0002. For WLWGMDIDPYK (modifications not checked) [HBV NUC 26 peptide …], the binding affinity ratio (relative binding to standard peptide) in the assay with HLA-A*0301 (human) [1] (setting [9]) turned out to be 0.003. Turning to PLEEELPRL (modifications not checked), the binding affinity ratio (IC50 of standard peptide / IC50 of test peptide) in the assay with HLA-A*0201 (human) [2] amounted to 0.0003. Consider RVTGGVFLV (modifications not checked) [HBV POL 357 9-mer …], for which the binding affinity ratio (IC50 of standard peptide / IC50 of test peptide) with HLA-A*0201 (Human) [3] (setting [9]) is 0.0041. For WMCLRRFIIFL (modifications not checked) [HBV ENV 237 11-mer peptide …], the binding affinity ratio (IC50 of standard peptide / IC50 of test peptide) with HLA-A*0201 (human) [4] was 0.0019. Consider LLDYQGML (modifications not checked) [HBV ENV 260 peptide LLDYQGML], for which the binding affinity ratio (IC50 of standard peptide / IC50 of test peptide) with HLA-A*0201 (human) [4] came out at 0.0004. Consider VLHKRTLGL (modifications not checked) [HBV X 92 peptide …], for which the binding affinity ratio (IC50 of standard peptide / IC50 of test peptide) with HLA-A*0201 (Human) [3] (setting [9]) amounted to 0.0012.

With SLNFMGYVI (modifications not checked) [HBV POL 581 9-mer …], in the assay with HLA-A*0201 (Human) [3], the binding affinity ratio (IC50 of standard peptide / IC50 of test peptide) was 0.0038.

Consider FTSAICSVV (modifications not checked) [HBV POL 518 …], for which the binding affinity ratio (IC50 of standard peptide / IC50 of test peptide) in the assay with HLA-A*0201 (Human) [3] is 0.009.

Regarding FLVDKNPHNT (modifications not checked) [HBV POL 363 …], the binding affinity ratio (IC50 of standard peptide / IC50 of test peptide) with HLA-A*0201 (Human) [3] amounted to 0.0012. Turning to YLVSFGVWIR (modifications not checked) [HBV NUC 118 peptide …], in the assay with HLA-A*0301 (human) [1], the binding affinity ratio (relative binding to standard peptide) was 0.0005. WIRTPPAY (modifications not checked) [HBV NUC 125 peptide WIRTPPAY]: in the assay with HLA-A*0301 (human) [1], the binding affinity ratio (relative binding to standard peptide) was -0.0002. With SVRFSWLSLL (modifications not checked) [HBV ENV 330 peptide …], the binding affinity ratio (IC50 of standard peptide / IC50 of test peptide) in the assay with HLA-A*0201 (Human) [3] worked out at 0.0004.

For GLSPTVWL (modifications not checked) [HBV ENV 348 peptide GLSPTVWL], in the assay with HLA-A*0201 (Human) [3], the binding affinity ratio (IC50 of standard peptide / IC50 of test peptide) turned out to be 0.0036. For the molecule PILSTLPETTV (modifications not checked), in the assay with HLA-A*0201 (human) [2], the binding affinity ratio (IC50 of standard peptide / IC50 of test peptide) stood at 0.0001. On to WGMDIDPYK (modifications not checked) [HBV NUC 28 peptide …], for which the binding affinity ratio (IC50 of standard peptide / IC50 of test peptide) (ratio to standard peptide) in the assay with HLA-A*0301 (human) [7] was -0.0003. ILLLCLIFL (modifications not checked) [HBV ENV 249 peptide …]: the binding affinity ratio (IC50 of standard peptide / IC50 of test peptide) with HLA-A*0201 (Human) [3] amounted to 0.0015.

For the molecule NLNVSIPWT (modifications not checked) [HBV POL 45 peptide …], the binding affinity ratio (IC50 of standard peptide / IC50 of test peptide) (ratio to standard peptide) in the assay with HLA-A*0201 (Human) [3] was 0.0005. With FVLGGCRHKL (modifications not checked) [HBV X 132 …], the binding affinity ratio (IC50 of standard peptide / IC50 of test peptide) with HLA-A*0201 (Human) [3] amounted to 0.003.
